Columns and labels:
[1] = biological target: T1, human H7CR (B7-H7 counter-receptor) (human, UniProt Q96BF3 23-282); assay: binding to human H7CR as endogenously expressed on the surface of a cell
T1 construct: Used for H7CR on CHO.hH7CR transfectants, human T cells and tonsil tissue; also called B7-H7CR; CD28H
T1 sequence: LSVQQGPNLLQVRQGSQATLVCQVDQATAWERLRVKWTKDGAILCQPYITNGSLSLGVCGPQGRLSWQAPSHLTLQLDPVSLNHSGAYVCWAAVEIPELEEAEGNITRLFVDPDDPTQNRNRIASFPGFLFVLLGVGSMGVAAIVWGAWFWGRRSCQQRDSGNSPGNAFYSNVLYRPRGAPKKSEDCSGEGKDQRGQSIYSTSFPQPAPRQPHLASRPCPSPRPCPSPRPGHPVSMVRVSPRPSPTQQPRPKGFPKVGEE

[2] = biological target: T2, H7CR-GFP fusion protein on transfected CHO cells (Homo sapiens (Human), UniProt Q96BF3 23-282); assay: flow cytometry, 5 µg/ml variant on H7CR-GFP transfected CHO cells, anti-hIg PE secondary antibody [row HC2-2, column LC1-2]
T2 construct: not shown: GFP part
T2 sequence: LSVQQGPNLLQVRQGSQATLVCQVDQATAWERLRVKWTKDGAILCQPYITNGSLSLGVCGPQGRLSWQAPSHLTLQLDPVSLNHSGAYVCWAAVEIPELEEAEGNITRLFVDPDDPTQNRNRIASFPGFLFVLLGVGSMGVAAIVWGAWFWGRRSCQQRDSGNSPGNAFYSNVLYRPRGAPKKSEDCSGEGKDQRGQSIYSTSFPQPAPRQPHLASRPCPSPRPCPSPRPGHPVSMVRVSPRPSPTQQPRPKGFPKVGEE
Protocol: (§1) 5 μg/ml antibodies from thirty-six variants were incubated with H7CR-GFP fusion protein transfected CHO cells for 30 min at room temperature. Cells were then washed twice with 2 ml flow cytometry buffer, and resuspended in 100 μl flow cytometry buffer. 1 μl anti-hIg PE secondary antibody (Biolegend) was added and incubated with the cells for 15 mins Samples were then washed and resuspended in 100 μl flow cytometry buffer. Flow Cytometry data was acquired using BD Canto (BD Biosciences) in plate format and analyzed by FlowJo software.

[3] = biological target: T2, H7CR-GFP fusion protein on transfected …; assay: flow cytometry, 5 µg/ml variant on H7CR-GFP transfected CHO cells, anti-hIg PE secondary antibody [row HC2-2, column LC2-2]
Protocol: as §1

[4] = biological target: T2, H7CR-GFP fusion protein on transfected …; assay: flow cytometry, 5 µg/ml variant on H7CR-GFP transfected CHO cells, anti-hIg PE secondary antibody [row HC2-1, column LC2-2]
Protocol: as §1

[5] = biological target: T2, H7CR-GFP fusion protein on transfected …; assay: flow cytometry, 5 µg/ml variant on H7CR-GFP transfected CHO cells, anti-hIg PE secondary antibody [row HC2-2, column LC2-1]
Protocol: as §1

[6] = biological target: T2, H7CR-GFP fusion protein on transfected …; assay: flow cytometry, 5 µg/ml variant on H7CR-GFP transfected CHO cells, anti-hIg PE secondary antibody [row HC2-2, column LC1-3]
Protocol: as §1

[7] = biological target: T2, H7CR-GFP fusion protein on transfected …; assay: flow cytometry, 5 µg/ml variant on H7CR-GFP transfected CHO cells, anti-hIg PE secondary antibody [row HC2-1, column LC2-3]
Protocol: as §1

[8] = biological target: T2, H7CR-GFP fusion protein on transfected …; assay: flow cytometry, 5 µg/ml variant on H7CR-GFP transfected CHO cells, anti-hIg PE secondary antibody [row HC2-2, column LC1-1]
Protocol: as §1

B1: 4.5 humanized variant 26 (HC2-2 / LC1-2) (antibody, V domains shown)
VH: QITLKESGPTLVKPTQTLTLTCTVSGFSITTGGYYWNWIRQPPGKKLEWLALIYTSGRTSYNPSLKSRLTITKDTSKNQVVLTMTNMDPVDTATYYCADMADKGGWFAYWGQGTLVTVSS
VL: DIVMTQSPDSLAVSLGERATINCKSSQSLFSSNTKRNYLNWYQQKPGQPPKLLIYHASTRLSGVPDRFSGSGSGTDFTLTISSLQAEDVADYFCQQHYETPLTFGDGTRLEIK
notes: Variable domains only; detected with anti-hIg secondary; also called VH2B / VL1B
binding result [1]: binds | binding result [2]: binds

B2: 4.5 humanized variant 29 (HC2-2 / LC2-2) (antibody, V domains shown)
VH: QITLKESGPTLVKPTQTLTLTCTVSGFSITTGGYYWNWIRQPPGKKLEWLALIYTSGRTSYNPSLKSRLTITKDTSKNQVVLTMTNMDPVDTATYYCADMADKGGWFAYWGQGTLVTVSS
VL: DIVMTQTPLSLPVTPGEPASISCRSSQSLFSSNTKRNYLNWYLQKPGQSPKLLIYHASTRLSGVPDRFSGSGSGTDFTLKISRVEAEDVGDYFCQQHYETPLTFGDGTRLEIK
notes: Variable domains only; detected with anti-hIg secondary; also called VH2B / VL2B
binding result [1]: binds | binding result [3]: binds

B3: 4.5 humanized variant 23 (HC2-1 / LC2-2) (antibody, V domains shown)
VH: QITLKESGPTLVKPTQTLTLTCTFSGFSITTGGYYVGWIRQPPGKALEWLALIYTSGRTRYSPSLKSRLTITKDTSKNQVVLTMTNMDPVDTATYYCADMADKGGWFAYWGQGTLVTVSS
VL: DIVMTQTPLSLPVTPGEPASISCRSSQSLFSSNTKRNYLNWYLQKPGQSPKLLIYHASTRLSGVPDRFSGSGSGTDFTLKISRVEAEDVGDYFCQQHYETPLTFGDGTRLEIK
notes: Variable domains only; detected with anti-hIg secondary; also called VH2A / VL2B
binding result [1]: binds | binding result [4]: binds

B4: 4.5 humanized variant 28 (HC2-2 / LC2-1) (antibody, V domains shown)
VH: QITLKESGPTLVKPTQTLTLTCTVSGFSITTGGYYWNWIRQPPGKKLEWLALIYTSGRTSYNPSLKSRLTITKDTSKNQVVLTMTNMDPVDTATYYCADMADKGGWFAYWGQGTLVTVSS
VL: DIVMTQTPLSLPVTPGEPASISCRSSQSLFSSNTKRNYLDWYLQKPGQSPQLLIYHASYRASGVPDRFSGSGSGTDFTLKISRVEAEDVGVYYCQQHYETPLTFGQGTRLEIK
notes: Variable domains only; detected with anti-hIg secondary; also called VH2B / VL2A
binding result [1]: binds | binding result [5]: binds

B5: 4.5 humanized variant 27 (HC2-2 / LC1-3) (antibody, V domains shown)
VH: QITLKESGPTLVKPTQTLTLTCTVSGFSITTGGYYWNWIRQPPGKKLEWLALIYTSGRTSYNPSLKSRLTITKDTSKNQVVLTMTNMDPVDTATYYCADMADKGGWFAYWGQGTLVTVSS
VL: DIVMTQSPDSLAVSLGERATINCLSSQSLFSSNTKRNYLNWYQQKPGQSPKLLIYHASTRLSGVPDRFSGSGSGTDFTLTISSLQAEDVADYFCQQHYETPLTFGDGTRLEIK
notes: Variable domains only; detected with anti-hIg secondary; also called VH2B / VL1C
binding result [1]: binds | binding result [6]: binds

B6: 4.5 humanized variant 24 (HC2-1 / LC2-3) (antibody, V domains shown)
VH: QITLKESGPTLVKPTQTLTLTCTFSGFSITTGGYYVGWIRQPPGKALEWLALIYTSGRTRYSPSLKSRLTITKDTSKNQVVLTMTNMDPVDTATYYCADMADKGGWFAYWGQGTLVTVSS
VL: DIVMTQTPSSLPVTPGEPASISCLSSQSLFSSNTKRNYLNWYLQKPGQSPKLLIYHASTRLSGVPDRFSGSGSGTDFTLKISRVEAEDVGDYFCQQHYETPLTFGDGTRLEIK
notes: Variable domains only; detected with anti-hIg secondary; also called VH2A / VL2C
binding result [1]: binds | binding result [7]: binds

B7: 4.5 humanized variant 25 (HC2-2 / LC1-1) (antibody, V domains shown)
VH: QITLKESGPTLVKPTQTLTLTCTVSGFSITTGGYYWNWIRQPPGKKLEWLALIYTSGRTSYNPSLKSRLTITKDTSKNQVVLTMTNMDPVDTATYYCADMADKGGWFAYWGQGTLVTVSS
VL: DIVMTQSPDSLAVSLGERATINCKSSQSLFSSNTKRNYLAWYQQKPGQPPKLLIYHASTRESGVPDRFSGSGSGTDFTLTISSLQAEDVAVYYCQQHYETPLTFGQGTRLEIK
notes: Variable domains only; detected with anti-hIg secondary; also called VH2B / VL1A
binding result [1]: binds | binding result [8]: binds
